Results as given in patent US20260167699A1 (Chugai, published 2026).
Residue numbers refer to the chain shown, from its start.

T1: FcγRIIa(R) extracellular domain, C-terminal His tag (human, UniProt P12318 34-217)
T1 construct: extracellular domain; also called 2aR
T1 sequence: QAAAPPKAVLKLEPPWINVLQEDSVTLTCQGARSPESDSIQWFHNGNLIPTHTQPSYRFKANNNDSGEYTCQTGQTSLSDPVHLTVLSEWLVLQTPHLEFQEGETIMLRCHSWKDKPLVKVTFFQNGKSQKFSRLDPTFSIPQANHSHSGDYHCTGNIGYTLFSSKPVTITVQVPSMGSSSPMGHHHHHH

T2: FcγRIIa(H) extracellular domain, C-terminal His tag (human, UniProt P12318 34-217)
T2 construct: extracellular domain; also called 2aH
T2 sequence: T1 sequence with R134H

T3: FcγRIIb extracellular domain, C-terminal His tag (human, UniProt P31994 43-217)
T3 construct: extracellular domain; also called 2b
T3 sequence: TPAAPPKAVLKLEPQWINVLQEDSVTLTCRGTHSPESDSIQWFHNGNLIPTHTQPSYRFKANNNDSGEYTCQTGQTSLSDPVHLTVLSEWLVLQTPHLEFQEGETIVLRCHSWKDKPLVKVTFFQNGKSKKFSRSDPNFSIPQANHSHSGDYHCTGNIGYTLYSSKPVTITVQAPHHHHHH

T4: FcγRIIa(H) extracellular domain, C-terminal His tag (human, UniProt P12318 34-217)
T4 construct: extracellular domain; Allotype H131; also called 2aH
T4 sequence: T1 sequence with R134H

T5: FcγRIIa(R) extracellular domain, C-terminal His tag (human, UniProt P12318 34-217)
T5 construct: extracellular domain; Allotype R131; also called 2aR
T5 sequence: T1 sequence

T6: FcγRIIb extracellular domain, C-terminal His tag (human, UniProt P31994 43-217)
T6 construct: extracellular domain; also called 2b
T6 sequence: T3 sequence

B1: GpH7-A5/GpH7-B3 variant Y296_20W/GpL16-k0 (antibody, human IgG1, kappa)
heavy 1: not shown
heavy 2: not shown
light: DIVMTQSPLSLPVTPGEPASISCQASESLVHSNRNTYLHWYLQKPGQSPQLLIYKVSNRFSGVPDRFSGSGSGTDFTLKISRVEAEDVGVYYCSQNTHVPPTFGQGTKVEIERTVAAPSVFIFPPSDEQLKSGTASVVCLLNNFYPREAKVQWKVDNALQSGNSQESVTEQDSKDSTYSLSSTLTLSKADYEKHKVYACEVTHQGLSSPVTKSFNRGEC
notes: heterodimerized IgG1, one H chain mutated; also called He Ab; copies: 1 + 1 + 2
B2: GpH7-A5/GpH7-B3 variant K326_20W/GpL16-k0 (antibody, human IgG1, kappa)
heavy 1: not shown
heavy 2: not shown
light: B1 light
notes: He Ab: anti-glypican 3 IgG1 heterodimer, only the GpH7-B3 chain mutated; position in EU numbering; also called He Ab
B3: GpH7-A5/GpH7-B3 variant Y300_20W/GpL16-k0 (antibody, human IgG1, kappa)
heavy 1: not shown
heavy 2: not shown
light: B1 light
notes: as for B1
B4: GpH7-A5/GpH7-B3 variant Y300_06M/GpL16-k0 (antibody, human IgG1, kappa)
heavy 1: not shown
heavy 2: not shown
light: B1 light
notes: as for B1
B5: GpH7-A5/GpH7-B3 variant Y300_01G/GpL16-k0 (antibody, human IgG1, kappa)
heavy 1: not shown
heavy 2: not shown
light: B1 light
notes: as for B1
B6: GpH7-A5/GpH7-B3 variant Y300_11K/GpL16-k0 (antibody, human IgG1, kappa)
heavy 1: not shown
heavy 2: not shown
light: B1 light
notes: as for B1
B7: GpH7-A5/GpH7-B3 variant Y300_16H/GpL16-k0 (antibody, human IgG1, kappa)
heavy 1: not shown
heavy 2: not shown
light: B1 light
notes: as for B1
B8: GpH7-A5/GpH7-B3 variant Y300_09D/GpL16-k0 (antibody, human IgG1, kappa)
heavy 1: not shown
heavy 2: not shown
light: B1 light
notes: as for B1
B9: GpH7-A5/GpH7-B3 variant Y300_10E/GpL16-k0 (antibody, human IgG1, kappa)
heavy 1: not shown
heavy 2: not shown
light: B1 light
notes: as for B1
B10: GpH7-A5/GpH7-B3 variant A327_09D/GpL16-k0 (antibody, human IgG1, kappa)
heavy 1: not shown
heavy 2: not shown
light: B1 light
notes: as for B2
B11: GpH7-A5/GpH7-B3 variant A327_05P/GpL16-k0 (antibody, human IgG1, kappa)
heavy 1: not shown
heavy 2: not shown
light: B1 light
notes: as for B2
B12: GpH7-A5/GpH7-B3 variant Y300_04F/GpL16-k0 (antibody, human IgG1, kappa)
heavy 1: not shown
heavy 2: not shown
light: B1 light
notes: as for B1
B13: GpH7-A5/GpH7-B3 variant Y300_03V/GpL16-k0 (antibody, human IgG1, kappa)
heavy 1: not shown
heavy 2: not shown
light: B1 light
notes: as for B1
B14: GpH7-A5/GpH7-B3 variant Y300_02A/GpL16-k0 (antibody, human IgG1, kappa)
heavy 1: not shown
heavy 2: not shown
light: B1 light
notes: as for B1
B15: GpH7-A5/GpH7-B3 variant Y300_07I/GpL16-k0 (antibody, human IgG1, kappa)
heavy 1: not shown
heavy 2: not shown
light: B1 light
notes: as for B1
B16: GpH7-A5/GpH7-B3 variant Y300_19Q/GpL16-k0 (antibody, human IgG1, kappa)
heavy 1: not shown
heavy 2: not shown
light: B1 light
notes: as for B1
B17: GpH7-A5/GpH7-B3 variant A327_06M/GpL16-k0 (antibody, human IgG1, kappa)
heavy 1: not shown
heavy 2: not shown
light: B1 light
notes: as for B2
B18: GpH7-A5/GpH7-B3 variant Y300_08L/GpL16-k0 (antibody, human IgG1, kappa)
heavy 1: not shown
heavy 2: not shown
light: B1 light
notes: as for B1
B19: GpH7-A5/GpH7-B3 variant Y300_14T/GpL16-k0 (antibody, human IgG1, kappa)
heavy 1: not shown
heavy 2: not shown
light: B1 light
notes: as for B1
B20: GpH7-A5/GpH7-B3 variant Y300_13S/GpL16-k0 (antibody, human IgG1, kappa)
heavy 1: not shown
heavy 2: not shown
light: B1 light
notes: as for B1
B21: GpH7-A5/GpH7-B3 variant Y300_18N/GpL16-k0 (antibody, human IgG1, kappa)
heavy 1: not shown
heavy 2: not shown
light: B1 light
notes: as for B1

Columns and labels:
[1] = biological target: T7, FcγRIa extracellular domain, C-terminal His tag (human, UniProt P12314 16-292); assay: SPR; He Ab vs HeCon Ab (GpH7-A5/GpH7-B3/GpL16-k0)=100;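 also: surface plasmon resonance at 25 °C with the test antibody captured on a sensor chip via antigenic peptide, protein L or protein A/G and FcγR flowed over as analyte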
T7 construct: extracellular domain; also called 1a
T7 sequence (P12314 other isoform, or with tags, fused parts or gaps): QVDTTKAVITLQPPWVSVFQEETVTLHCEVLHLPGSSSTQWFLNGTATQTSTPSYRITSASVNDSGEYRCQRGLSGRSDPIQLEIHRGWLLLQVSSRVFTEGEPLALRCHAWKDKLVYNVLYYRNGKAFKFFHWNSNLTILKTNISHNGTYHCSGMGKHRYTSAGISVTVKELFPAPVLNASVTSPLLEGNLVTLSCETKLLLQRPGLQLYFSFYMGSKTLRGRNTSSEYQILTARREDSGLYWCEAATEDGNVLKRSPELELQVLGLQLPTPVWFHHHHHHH

[2] = biological target: T1, FcγRIIa(R) extracellular domain, …; assay: as above
[3] = biological target: T2, FcγRIIa(H) extracellular domain, …; assay: as above
[4] = biological target: T3, FcγRIIb extracellular domain, …; assay: as above
[5] = biological target: T8, FcγRIIIa extracellular domain, C-terminal His tag (human, UniProt P08637 17-208); assay: as above
T8 construct: extracellular domain; also called 3a
T8 sequence (P08637 other isoform, or with tags, fused parts or gaps): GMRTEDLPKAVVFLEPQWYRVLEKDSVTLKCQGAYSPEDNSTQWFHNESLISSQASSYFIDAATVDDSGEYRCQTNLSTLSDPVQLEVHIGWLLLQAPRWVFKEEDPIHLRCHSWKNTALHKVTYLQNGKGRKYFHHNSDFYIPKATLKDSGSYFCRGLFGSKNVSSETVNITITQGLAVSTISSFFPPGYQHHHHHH

[6] = biological target: T9, FcγRIa extracellular domain, C-terminal His tag (human, UniProt P12314 16-292); assay: SPR (Biacore); binding relative to GpH7-A5/GpH7-B3/GpL16-k0 x100;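 also: antibodies captured on a chip surface, soluble FcγR flowed over in HBS-EP+ running buffer at 25 °C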
T9 construct: extracellular domain; also called 1a
T9 sequence (P12314 other isoform, or with tags, fused parts or gaps): as the sequence (P12314 other isoform, or with tags, fused parts or gaps) above
Procedure: (§1) The antibody of interest was analyzed for its interaction with FcγR using a BiaCore™ T100, BiaCore™ A100, or BiaCore™ 4000 surface plasmon resonance system (GE Healthcare Japan Corp.). The running buffer used was HBS-EP+ (GE Healthcare Japan Corp.). The assay temperature was set to 25° C. The sensor chips used were: a chip prepared by immobilizing antigenic peptides onto Series S Sensor Chip CM5 (GE Healthcare Japan Corp.) by the amine coupling method; a chip prepared by immobilizing antigenic peptides biotinylated in advance onto Series S Sensor Chip SA (certified) (GE Healthcare Japan Corp.) through their interaction; a chip prepared by immobilizing protein L (ACTIGEN, BioVision, Inc.) onto Series S Sensor Chip CM5 (GE Healthcare Japan Corp.); and a chip prepared by immobilizing protein A/G (Thermo Fisher Scientific K.K.) onto Series S Sensor Chip CM5 (GE Healthcare Japan Corp.). The antibody of interest was captured onto any of these chips and allowed to interact with FcγR diluted with a running buffer. The antibody captured on the chip was washed off through the reaction of 10 mM glycine-HCl (pH 1.5) to regenerate the chip, which was repetitively used.

[7] = biological target: T4, FcγRIIa(H) extracellular domain, …; assay: as above
Procedure: as §1

[8] = biological target: T5, FcγRIIa(R) extracellular domain, …; assay: as above
Procedure: as §1

[9] = biological target: T10, FcγRIIIa extracellular domain, C-terminal His tag (human, UniProt P08637 17-208); assay: as above
T10 construct: extracellular domain; also called 3a
T10 sequence (P08637 other isoform, or with tags, fused parts or gaps): as the sequence (P08637 other isoform, or with tags, fused parts or gaps) above
Procedure: as §1

[10] = biological target: T6, FcγRIIb extracellular domain, …; assay: as above
Procedure: as §1

| Binder | He/Con 1a [1] | He/Con 2aR [2] | He/Con 2aH [3] | He/Con 2b [4] | He/Con 3a [5] | He/Con 1a [6] | He/Con 2aH [7] | He/Con 2aR [8] | He/Con 3a [9] | He/Con 2b [10] |
| --- | --- | --- | --- | --- | --- | --- | --- | --- | --- | --- |
| B1 | 107% | 105% | 95.4% | 105% | 127% | – | – | – | – | – |
| B2 | – | – | – | – | – | 108% | 86.7% | 125% | 93.7% | 166% |
| B3 | 106% | 104% | 103% | 110% | 101% | – | – | – | – | – |
| B4 | 106% | 105% | 116% | 110% | 106% | – | – | – | – | – |
| B5 | 110% | 66.6% | 82.6% | 63.2% | 88.6% | – | – | – | – | – |
| B6 | 101% | 73.1% | 74.2% | 67.4% | 63.7% | – | – | – | – | – |
| B7 | 105% | 103% | 105% | 114% | 102% | – | – | – | – | – |
| B8 | 106% | 105% | 101% | 122% | 104% | – | – | – | – | – |
| B9 | 108% | 127% | 108% | 175% | 113% | – | – | – | – | – |
| B10 | – | – | – | – | – | 105% | 124% | 159% | 86% | 214% |
| B11 | – | – | – | – | – | 102% | 67.9% | 80.6% | 61.9% | 86.3% |
| B12 | 102% | 103% | 103% | 106% | 100% | – | – | – | – | – |
| B13 | 110% | 96.8% | 109% | 96.5% | 83.8% | – | – | – | – | – |
| B14 | 106% | 92.9% | 104% | 90.5% | 88.1% | – | – | – | – | – |
| B15 | 102% | 90.9% | 120% | 97.4% | 103% | – | – | – | – | – |
| B16 | 106% | 119% | 107% | 142% | 105% | – | – | – | – | – |
| B17 | – | – | – | – | – | 106% | 89.3% | 80% | 54% | 74.1% |
| B18 | 107% | 96.9% | 120% | 96.1% | 114% | – | – | – | – | – |
| B19 | 105% | 78.6% | 104% | 72.7% | 92.8% | – | – | – | – | – |
| B20 | 105% | 72.4% | 97.8% | 70.4% | 80.3% | – | – | – | – | – |
| B21 | 101% | 96.2% | 101% | 92.7% | 96% | – | – | – | – | – |
